B1: M1H5 Fab (Fab, V domains shown)
VH: EVNLVESGGDLVKPGGSLKLSCAASGFTFSSYGMSWVRQTPDKRLEWVATISSGGTYTYYPDSVKGRFTISRDNAKNTLYLQMSSLKSEDTAMYYCAREIMRGGGYYFDYWSQGTTLTVSS
VL: DIQMIQSTSSLSASLGDRVTISCRASQDISNYLNWYQQKPDGTVKLLIYYTSRLHSGVPSRFSGSGSGTDYSLTISNLEQEDIATYFCQQGNTLPYTFGGGTKLEIK
B2: M2B10 Fab (Fab, V domains shown)
VH: EVQLQQSGAELVRPGTSVKVSCKASGYAFTNYLIEWVKQRPGQGLEWIGVINPGIGNTNYNEKFKGKATLTADKSSSTVYMQLSSLTSDDSAVYFCARGLNYGSSQHWYFDVWGAGTSVTVSS
VL: IVMTQSPAILSASLGERVTMTCTASSSVSSSYLHWYQQKPGSSPKLWIYSTSNLASGVPARFSGSGSGTSYSLTISSMEAEDAATYYCHQYHRSPPTFGAGTKLEIK

Target: RTX751 (ACT residues 751–1706) (Bordetella pertussis, UniProt P0DKX7 751-1706)
Assay: SPR

RTX751 (ACT residues 751–1706), sequence (P0DKX7 751-1706): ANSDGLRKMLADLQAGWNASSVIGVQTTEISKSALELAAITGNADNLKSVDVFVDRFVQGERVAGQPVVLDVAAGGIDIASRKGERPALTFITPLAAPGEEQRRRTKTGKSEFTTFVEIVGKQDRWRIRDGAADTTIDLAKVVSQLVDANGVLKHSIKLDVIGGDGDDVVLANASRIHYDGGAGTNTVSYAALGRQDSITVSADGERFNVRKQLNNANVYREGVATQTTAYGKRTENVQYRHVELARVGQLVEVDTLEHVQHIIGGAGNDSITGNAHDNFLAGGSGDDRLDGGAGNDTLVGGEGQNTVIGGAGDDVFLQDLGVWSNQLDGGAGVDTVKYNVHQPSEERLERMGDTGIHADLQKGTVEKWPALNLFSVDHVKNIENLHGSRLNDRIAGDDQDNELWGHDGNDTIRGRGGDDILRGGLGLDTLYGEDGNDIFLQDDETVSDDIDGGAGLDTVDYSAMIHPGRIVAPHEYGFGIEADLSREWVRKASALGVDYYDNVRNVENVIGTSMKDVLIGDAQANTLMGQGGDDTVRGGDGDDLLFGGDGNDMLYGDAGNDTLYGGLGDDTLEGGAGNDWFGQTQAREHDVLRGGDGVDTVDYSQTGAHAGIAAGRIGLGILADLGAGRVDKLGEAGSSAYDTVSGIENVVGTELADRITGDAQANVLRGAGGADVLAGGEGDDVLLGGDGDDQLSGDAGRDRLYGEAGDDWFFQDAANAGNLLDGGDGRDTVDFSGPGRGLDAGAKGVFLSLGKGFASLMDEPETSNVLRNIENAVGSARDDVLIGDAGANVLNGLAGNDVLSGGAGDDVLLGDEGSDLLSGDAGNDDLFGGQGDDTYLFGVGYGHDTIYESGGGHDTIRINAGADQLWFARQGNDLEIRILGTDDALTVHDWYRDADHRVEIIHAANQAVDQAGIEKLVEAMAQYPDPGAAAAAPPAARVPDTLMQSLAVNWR

| Binder | koff [s⁻¹] |
| --- | --- |
| B1 | 0.00102 |
| B2 | 0.00121 |
